Test results: US20250197493A1

Columns and labels:
[1] = biological target: cell membrane-expressed cynomolgus LAG-3 (cynomolgus monkey); assay: flow cytometry, SEB-activated cynomolgus PBMCs, CD8 T cells, percent of cells bound (isotype control)
[2] = biological target: cell membrane-expressed human LAG-3 (human) (UniProt P18627); assay: flow cytometry, SEB-activated human PBMCs, CD4 T cells, percent of cells bound (isotype control)
[3] = biological target: cell membrane-expressed human LAG-3 (human) (UniProt P18627); assay: flow cytometry, SEB-activated human PBMCs, CD8 T cells, percent of cells bound (isotype control)
[4] = biological target: cell membrane-expressed cynomolgus LAG-3 (cynomolgus monkey); assay: flow cytometry, SEB-activated cynomolgus PBMCs, CD4 T cells, percent of cells bound (isotype control)

Chain of cell membrane-expressed human LAG-3 (human) (P18627 23-525 limits assumed): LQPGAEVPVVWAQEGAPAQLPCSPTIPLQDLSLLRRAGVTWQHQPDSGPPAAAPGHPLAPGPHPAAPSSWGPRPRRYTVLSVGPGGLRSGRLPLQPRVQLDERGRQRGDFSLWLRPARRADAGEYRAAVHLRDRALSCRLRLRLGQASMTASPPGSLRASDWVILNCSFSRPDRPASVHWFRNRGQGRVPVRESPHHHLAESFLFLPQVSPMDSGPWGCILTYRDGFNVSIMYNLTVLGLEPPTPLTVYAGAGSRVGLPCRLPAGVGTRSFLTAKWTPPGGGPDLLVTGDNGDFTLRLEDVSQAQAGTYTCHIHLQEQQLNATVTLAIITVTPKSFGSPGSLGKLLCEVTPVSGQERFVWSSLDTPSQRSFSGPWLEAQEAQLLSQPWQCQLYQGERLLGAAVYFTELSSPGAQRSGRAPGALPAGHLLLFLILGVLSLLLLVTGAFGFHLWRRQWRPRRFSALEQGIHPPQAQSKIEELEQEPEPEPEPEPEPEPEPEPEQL

EC50 [1]: 8.66 µg/mL
EC50 [2]: 0.39 µg/mL
EC50 [3]: 0.676 µg/mL
EC50 [4]: 2450 µg/mL
Substance: Isotype hG1 (antibody)
